Assay results published in paper PMC13348673.

Key:
[1] = target: Arp2/3 complex branch junction (sheep Arp2/3 complex bound to rabbit actin mother and daughter filaments) (sheep (endogenous in brain) | rabbit) (UniProt P68135)
[2] = target: Arp2/3 complex branch junction (sheep Arp2/3 complex bound to rabbit actin mother and daughter filaments) (sheep (endogenous in brain) | rabbit) (UniProt P68135); remark: listed apart in the source
[3] = target: Arp2/3 complex branch junction (sheep Arp2/3 complex bound to rabbit actin mother and daughter filaments) (sheep (endogenous in brain) | rabbit) (UniProt P68135); assay: microfluidics debranching assay under pulling force (TIRF microscopy of single branches); ADP-Arp2/3 branch junctions exposed to various GMF concentrations; constant average force 2.8 pN; 0.15 µM actin, 200 µM ATP; affinity from the fit of the saturation curve of the debranching rate

Substance | stability (inverse debranching rate) of ADP-Arp2/3 complex branches at 6 pN with 20 nM cortactin against no cortactin [1] [fold] | debranching rate of ADP-Arp2/3 complex branch junctions against GMF concentration (2.8 pN, 0.15 µM actin, 200 µM ATP) [2] [fold] | Kd [3] [nM]
Mouse cortactin full length (amino acids 1–546) (from UniProt Q60598 1-546) (natural protein) | 30 | – | –
Recombinant N-terminal 6xHis-tagged human GMFγ (amino acids 7–140) (from UniProt O60234 7-140) (natural protein) | – | 6 | 30
